# Measured values taken from patent publication US7829301B2, “Screening assays for binding antagonists of the AMD-associated variant of factor H (H384)” (The University of Manchester, priority 2006, dated 2010).
# T1: FMOD (Bos taurus, UniProt P13605)
# T1 construct: FMOD was isolated from bovine articular cartilage; from tissue; host or cells: bovine articular cartilage
# T1 sequence (P13605 19-376): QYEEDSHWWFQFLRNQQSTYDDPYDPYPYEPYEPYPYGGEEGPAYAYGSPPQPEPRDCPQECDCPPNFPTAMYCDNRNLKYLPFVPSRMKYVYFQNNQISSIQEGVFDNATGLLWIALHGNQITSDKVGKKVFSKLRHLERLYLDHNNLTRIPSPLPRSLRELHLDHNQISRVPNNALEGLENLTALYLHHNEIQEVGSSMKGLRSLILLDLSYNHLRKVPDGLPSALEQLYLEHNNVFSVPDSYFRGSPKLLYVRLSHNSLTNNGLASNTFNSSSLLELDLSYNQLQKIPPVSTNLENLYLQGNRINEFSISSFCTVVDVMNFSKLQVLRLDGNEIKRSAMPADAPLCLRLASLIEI
# Key:
# [1] = Microtitre plate assay: biotinylated proteins binding to immobilized heparin oligosaccharides of defined length
# Description: FIG. 10: Comparisons of the interactions of FHCCP6-8(H384) and the corresponding Y384 variant with heparin oligomers of different lengths. The binding of biotinylated-FHCCP6-8(H384) (black bars) or biotinylated-FHCCP6-8(Y384) (grey bars) to heparin oligosaccharides (dp4 to dp18) immobilized on microtitre plates plasma polymerized with allylamine. All values are plotted as mean absorbance values (n=8)±S.E.
# The heparin/HS/DS-binding activities of the FHCCP6-8(H384) and FHCCP6-8(Y384) variants (using biotinylated-FHCCP6-8 constructs), and in some cases full-length Factor H (detected with an antibody), were compared using an assay where the glycosaminoglycans (GAGs) were immobilized on allylamine-coated EpranEx plates (Mahoney et al (2004) Anal. Biochem. 330, 123-129), kindly supplied by Plasso Technology Ltd., Sheffield, UK. Previously, we have shown that heparin/HS can bind non-covalently to surfaces plasma polymerized with allylamine in such a way that these GAGs can still associate with a wide-range of proteins (Mahoney et al. (2005) J. Biol. Chem. 280, 27044-27055; Mahoney et al. (2004) ibid).
# In the case of the biotinylated FHCCP6-8(H384) and FHCCP6-8(Y384) constructs, bound material was detected by adding 200 μl/well of a 1:10,000 dilution of ExtrAvidin alkaline phosphatase (Sigma, Cat. No. E-2636) for 30 minutes. […]
# necrotic Jurkat T cells = assay: Flow cytometry binding to necrotic cells; format: cell-based; details: 10 μg/ml
# Method: Jurkat T cells (ATCC), were grown in RPMI, supplemented with glutamine, penicillin, streptomycin and 10% (v/v) heat inactivated FCS (all from Invitrogen). Necrosis was induced by heat whereby the cells were brought to a concentration of 10^6 per ml and incubated at 56° C. for 30 minutes in RPMI 1640 without FCS (Trouw et al. (2005) J. Exp. Med. 201, 1937-1948).
# Binding of FHCCP6-8 variants to necrotic cells was analyzed using flow cytometry. Protein binding was analyzed by incubating cells with varying concentrations of the FHCCP6-8 variants (0 to 10 μg/ml) in FACS binding buffer (10 mM HEPES, 150 mM NaCl, 5 mM KCl, 1 mM MgCl2, 1.8 mM CaCl2), with shaking for 30 minutes at room temperature. After washing twice in the same buffer, cells were stained with goat anti-FH polyclonal antibodies (Quidel) for 30 minutes at room temperature. This was followed by matched FITC-labelled secondary antibodies (Dako).
# [2] = Microtitre plate assay: biotinylated-4IS heparin binding to immobilized proteins
# Method: Alternatively, the unlabelled FHCCP6-8(H384), FHCCP6-8(Y384) and mutant proteins (i.e., K370A, R386A, K387A in the context of the FHCCP6-8(H384) construct) were adsorbed at 1 μg/ml in PBS onto microtitre plates (Nunc Maxisorb, Kastrup, Denmark) and their ligand-binding activities at pH 7.3 were determined using biotinylated-4IS heparin essentially as described in Mahoney et al. (2005) ibid. Plate assays were carried out in 20 mM HEPES, 130 mM NaCl, 0.05% (v/v) Tween-20, pH 7.3 and the level of bound heparin determined as described above for the biotinylated proteins.
# In these plate assays all data points were determined in quadruplicate from each of two independent experiments.
# FMOD = target: T1, FMOD; assay: Protein/protein binding assay with coated FMOD; set-up: species or system bovine
# Method: FMOD was isolated from bovine articular cartilage (Heinghrd et al., (1986) J. Biol. Chem. 261, 13866-13872) and recombinant CRP was obtained from Calbiochem. Deglycosylated FMOD was prepared by treatment with N-glycosiadase F (Roche Applied Science) as previously described (Sjöberg et al. (2005) J. Biol. Chem. 280, 32301-32308).
# CRP or FMOD was coated overnight at 4° C. onto microtiter plates (Maxisorp, Nunc) at a concentration of 10 μg/ml in 75 mM sodium carbonate buffer, pH 9.6. Wells treated only with coating buffer or 1% (w/v) BSA (Sigma) in coating buffer (for the assays involving FMOD) were used as negative controls. Between each step the wells were washed extensively with 50 mM Tris-HCl, 150 mM NaCl, 0.1% (v/v) Tween 20, pH 7.5. All wells were blocked with 1% (w/v) BSA (Sigma) in phosphate buffered saline (Invitrogen) for 1 hour at 37° C. […] The amount of bound protein was assessed using a goat polyclonal anti-FH antibody (Quidel, Cat # A312) followed by HRP-labeled anti-goat secondary antibodies (Dako) and the OPD development kit (Dako). Detection of biotinylated protein was performed using a StreptABComplex/HRP-kit from Dako, and in both cases the absorbance at 490 nm was measured to quantify protein binding.
Molecule,binding to heparin oligosaccharides relative to the other variant ([1]; 4- to 18-mers),binding to necrotic cells relative to the other variant (necrotic Jurkat T cells),binding to 4IS heparin relative to FHCCP6-8(H384) [2],"binding to immobilized FMOD relative to the other variant (FMOD; biotinylated FHCCP6-8 variants, all concentrations tested)",affinity for FMOD compared to H384 variant (FMOD; direct binding assay),oligosaccharide length giving maximal binding [1] [sugars]
"FHCCP6-8(H384): recombinant protein of Factor H CCPs 6-8, H384 allotype, with N-terminal non-authentic glycine (SEQ ID NO: 1) (protein, listed as Homo sapiens, VARIANT (1)...(188) Protein sequence of the FHCCP6-8 (H384) construct) MGTLKPCDYPDIKHGGLYHENMRRPYFPVAVGKYYSYYCDEHFETPSGSYWDHIHCTQDGWSPAVPCLRKCYFPYLENGYNQNHGRKFVQGKSIDVACHPGYALPKAQTTVTCMENGWSPTPRCIRVKTCSKSSIDIENGFISESQYTYALKEKAKYQCKLGYVTADGETSGSITCGKDGWSAQPTCI",bound better,binds necrotic cells better,–,–,–,–
"FHCCP6-8(Y384): recombinant Factor H CCPs 6-8, Y384 variant obtained by site-directed mutagenesis (SEQ ID NO: 3) (protein, listed as Homo sapiens, VARIANT (1)...(188) FHCCP6-8 (Y384 allotype of mature Factor H)) MGTLKPCDYPDIKHGGLYHENMRRPYFPVAVGKYYSYYCDEHFETPSGSYWDHIHCTQDGWSPAVPCLRKCYFPYLENGYNQNYGRKFVQGKSIDVACHPGYALPKAQTTVTCMENGWSPTPRCIRVKTCSKSSIDIENGFISESQYTYALKEKAKYQCKLGYVTADGETSGSITCGKDGWSAQPTCI",–,–,bind less well,significantly stronger signals,affinity is increased,~12
